Laboratory results as given in publication PMC4837325, “Arabidopsis HIGH PLOIDY2 Sumoylates and Stabilizes Flowering Locus C through Its E3 Ligase Activity” (Frontiers in Plant Science, 2016).

Target: T1, GST-HPY2 (Arabidopsis thaliana, UniProt Q8GYH7 1-249)
T1 construct: HIGH PLOIDY2 (HPY2), E3 SUMO ligase of Arabidopsis, full-length cDNA cloned into pGEX4T-1; also called HIGH PLOIDY2; AtHPY2; source: E. coli BL21, purified (glutathione resin)
T1 sequence (looked up): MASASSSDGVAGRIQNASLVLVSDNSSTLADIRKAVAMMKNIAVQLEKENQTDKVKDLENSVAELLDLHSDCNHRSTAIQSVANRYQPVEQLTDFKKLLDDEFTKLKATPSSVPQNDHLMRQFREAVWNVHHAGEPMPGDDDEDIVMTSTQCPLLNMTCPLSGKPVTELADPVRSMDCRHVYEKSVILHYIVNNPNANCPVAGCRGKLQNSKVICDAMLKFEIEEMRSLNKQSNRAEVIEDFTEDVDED
Assay: pull-down; in vitro GST pull-down, 2 ug each of GST-HPY2 bait and His6-FLC prey; His6-FLC detected by Western blot with anti-His antibody
Conditions: both partners purified

B1: His6-FLC (natural protein, Arabidopsis thaliana, UniProt Q9S7Q7 1-196, looked up)
chain: MGRKKLEIKRIENKSSRQVTFSKRRNGLIEKARQLSVLCDASVALLVVSASGKLYSFSSGDNLVKILDRYGKQHADDLKALDHQSKALNYGSHYELLELVDSKLVGSNVKNVSIDALVQLEEHLETALSVTRAKKTELMLKLVENLKEKEKMLKEENQVLASQMENNHHVGAEAEMEMSPAGQISDNLPVTLPLLN
notes: Flowering Locus C (FLC), MADS-box transcription factor of Arabidopsis, full-length cDNA cloned into pET28a; also called Flowering Locus C; source: E. coli BL21, purified (Ni2+-NTA resin)
  binding result: binds
